{"source": "paper PMC6351000", "target": "HIV-1 envelope glycoprotein (Env) of the Tier 1B subtype B strain BaL.01, cell surface-expressed (HIV-1 (subtype B, strain BaL.01))"}
{"substance": "recombinant two-domain sCD4 (sCD4-183_avi_his.bio) (domain or fragment)", "values": [{"measurement": "sCD4 concentration at the peak of the basal epitope exposure curve of V3 crown mAb 1-79 (antibody staining of Env-expressing cells, flow cytometry, increasing sCD4)", "result": 5, "unit": "µM"}]}
